Measurements as given in US20100233157A1 (published 2010).

Experiments:
[1] = biological target: T1, Cynomolgus macaque Fas on the cell surface (cynomolgus macaque, UniProt Q9TSN4 26-331); assay: flow cytometry, cynomolgus macaque B cell line
T1 construct: whole, on cells; also called Fas on cynomolgus macaque B cell line and PBL
T1 sequence (looked up): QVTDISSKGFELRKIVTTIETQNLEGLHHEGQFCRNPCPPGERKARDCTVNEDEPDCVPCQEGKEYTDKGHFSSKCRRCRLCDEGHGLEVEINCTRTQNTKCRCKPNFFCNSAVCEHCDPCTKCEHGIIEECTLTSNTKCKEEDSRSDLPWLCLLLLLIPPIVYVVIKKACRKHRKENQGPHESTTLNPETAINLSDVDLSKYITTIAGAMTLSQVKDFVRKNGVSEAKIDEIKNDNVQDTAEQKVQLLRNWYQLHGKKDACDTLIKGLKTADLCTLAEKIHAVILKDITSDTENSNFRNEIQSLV
Text: (§1) Reactivity of F45D9-γ1 or F45D9-γ4 mAb with Fas molecules of various species was initially screened using primary blood cells or lymphocytes cell lines. The binding of F45D9-γ1 or F45D9-γ4 mAb was explored by immunofluoresce staining and flow cytometry analysis, in human PBMC, purified human resting T cells, activated human T cells, peripheral blood lymphocytes (PBL) derived from BALE/c mice, rat, dog and pig, and in B cell lines or PBL derived from common marmoset, cynomolgus macaque, olive baboon, rhesus macaque and chimpanzee. Resting and activated human T cells were prepared as described in Example 7. B cells lines from monkeys were obtained from Biomedical Primate Research Center (Rijswijk, The Netherlands), and were cultured in RPMI 1640 medium supplemented with 2 mM glutamax, 100 UI/mL penicillin, 100 μg/mL streptomycin and 10% fetal bovine serum, at 37° C. and 5% CO₂. After washing in PBS cells (0.2−0.4×10⁶ cells/well) were incubated in staining buffer (PBS/1% FBS) containing F45D9-γ1 or human IgG control antibodies (10-20 ug/ml) in a 96-well U-bottom plate for 30 min on ice, in a 100 ul/well volume. Cells were then washed once with staining buffer, and further incubated for 30 min on ice with 1:30 dilution of FITC-conjugated rabbit F(ab′)₂ anti-human kappa (DakoCytomation Cat. F0434) or FITC-conjugated rabbit F(ab′)₂ anti-human IgG (DakoCytomation Cat. F0056). […]

[2] = biological target: T2, Pig Fas on the cell surface (pig, UniProt O77736 17-332); assay: flow cytometry, pig peripheral blood lymphocytes
T2 construct: whole, on cells; also called Fas on pig peripheral blood lymphocytes
T2 sequence (looked up): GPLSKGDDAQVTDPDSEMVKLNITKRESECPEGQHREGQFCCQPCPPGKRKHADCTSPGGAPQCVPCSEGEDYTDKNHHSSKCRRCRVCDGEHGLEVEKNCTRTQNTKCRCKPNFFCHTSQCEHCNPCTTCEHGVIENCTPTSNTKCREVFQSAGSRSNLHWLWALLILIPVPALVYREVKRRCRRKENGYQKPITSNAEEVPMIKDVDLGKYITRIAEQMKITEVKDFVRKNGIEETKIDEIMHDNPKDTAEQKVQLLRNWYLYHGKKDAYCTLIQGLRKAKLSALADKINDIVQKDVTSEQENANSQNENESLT
Text: as §1

[3] = biological target: T3, Rat Fas on the cell surface (rat, UniProt Q63199 22-324); assay: flow cytometry, rat peripheral blood lymphocytes
T3 construct: whole, on cells; also called Fas on rat peripheral blood lymphocytes
T3 sequence (looked up): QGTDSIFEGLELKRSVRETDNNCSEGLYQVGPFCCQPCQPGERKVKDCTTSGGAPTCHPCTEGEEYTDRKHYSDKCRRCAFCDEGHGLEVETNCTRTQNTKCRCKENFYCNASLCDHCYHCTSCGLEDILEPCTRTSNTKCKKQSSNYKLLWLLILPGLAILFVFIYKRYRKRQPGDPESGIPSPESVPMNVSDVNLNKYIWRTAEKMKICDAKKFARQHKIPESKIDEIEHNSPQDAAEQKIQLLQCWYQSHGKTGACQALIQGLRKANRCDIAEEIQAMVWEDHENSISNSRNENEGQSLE
Text: as §1

[4] = biological target: T4, Chimpanzee Fas on the cell surface (chimpanzee, UniProt K6ZIR5 26-335); assay: flow cytometry, chimpanzee B cell line
T4 construct: also called Fas on chimpanzee B cell line
T4 sequence: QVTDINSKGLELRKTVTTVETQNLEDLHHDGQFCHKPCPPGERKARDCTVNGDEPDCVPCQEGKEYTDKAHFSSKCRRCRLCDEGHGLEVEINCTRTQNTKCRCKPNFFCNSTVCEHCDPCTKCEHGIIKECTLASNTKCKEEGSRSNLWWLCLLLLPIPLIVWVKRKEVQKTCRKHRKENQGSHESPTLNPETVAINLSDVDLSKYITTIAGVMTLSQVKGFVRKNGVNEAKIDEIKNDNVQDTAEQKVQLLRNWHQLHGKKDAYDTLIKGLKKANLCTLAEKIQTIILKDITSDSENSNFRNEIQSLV
Text: as §1

[5] = biological target: T5, Rhesus macaque Fas on the cell surface (rhesus macaque, UniProt Q9BDP2 26-333); assay: flow cytometry, rhesus macaque B cell line
T5 construct: whole, on cells
T5 sequence (looked up): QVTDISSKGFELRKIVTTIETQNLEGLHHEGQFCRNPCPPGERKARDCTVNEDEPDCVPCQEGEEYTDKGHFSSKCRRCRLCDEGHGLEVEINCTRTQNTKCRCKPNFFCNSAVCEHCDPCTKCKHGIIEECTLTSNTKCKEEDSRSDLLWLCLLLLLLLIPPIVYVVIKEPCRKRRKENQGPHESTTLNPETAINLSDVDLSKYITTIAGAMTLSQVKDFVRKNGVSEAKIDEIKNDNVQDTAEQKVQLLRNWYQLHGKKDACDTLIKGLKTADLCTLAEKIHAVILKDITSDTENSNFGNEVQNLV
Text: as §1

[6] = biological target: T6, Mouse Fas on the cell surface (mouse, UniProt P25446 22-327); assay: flow cytometry, peripheral blood lymphocytes of mice
T6 construct: whole, on cells; also called Fas on peripheral blood lymphocytes of BALB/c mice
T6 sequence (looked up): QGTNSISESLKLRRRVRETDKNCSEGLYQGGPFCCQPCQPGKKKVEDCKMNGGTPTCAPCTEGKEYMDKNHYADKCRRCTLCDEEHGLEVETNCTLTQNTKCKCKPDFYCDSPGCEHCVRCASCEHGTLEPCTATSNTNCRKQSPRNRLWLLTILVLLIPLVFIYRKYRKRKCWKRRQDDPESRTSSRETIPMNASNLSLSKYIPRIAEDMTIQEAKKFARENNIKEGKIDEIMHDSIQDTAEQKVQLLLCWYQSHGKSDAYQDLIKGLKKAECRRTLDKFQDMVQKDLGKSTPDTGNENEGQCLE
Text: as §1

[7] = biological target: T7, Recombinant human soluble Fas receptor (PeproTech, Cat. 310-20) (human, UniProt P25445 17-173); assay: SPR (BIAcore 3000), soluble Fas immobilized on CM5 chip; antibody form and model not given
T7 construct: Bought soluble form; also called sFas; rFas
T7 sequence (looked up): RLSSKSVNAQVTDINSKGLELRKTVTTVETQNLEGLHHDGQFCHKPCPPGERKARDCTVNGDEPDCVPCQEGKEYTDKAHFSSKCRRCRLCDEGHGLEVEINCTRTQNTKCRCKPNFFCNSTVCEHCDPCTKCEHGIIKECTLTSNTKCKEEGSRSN

binding result [1]: no binding
binding result [2]: no binding (tested: 10-20 ug/ml)
binding result [3]: no binding (tested: 10-20 ug/ml)
binding result [4]: binds
binding result [5]: no binding
binding result [6]: no binding (tested: 10-20 ug/ml)
Ka [7]: 6.5e+09 M⁻¹
Kd [7]: 153 pM
B1: F45D9 mAb (isotype not specified at the place) (antibody, V domains shown)
VH: QVQLQQWGAGLLKPSETLSLICAVYGGSFSTYYWTWIRQPPGKGLEWIGEINHRGTTNYSPSLKSRVTISVDTSKNHISLNLTSVTAADTALYYCARGLLWIGEGDYGLDVWGQGTTVTVSS
VL: DIQMTQSPSSLSASVGDRVTITCRASQGIRRWLAWYQQKPEKAPKSLIYAASSLQSGVPSRFSGSGSGTDFTLTISSLQPEDFATYYCQQYNSYPYTFGQGTKLEIKR
notes: also called F45D9 mAb's
